Patent US20200078441A1 (TAIPEI VETERANS GENERAL HOSPITAL, published 2020)

Target: T1, recombinant His-tagged AGO2 protein (human Argonaute 2, baculovirus-expressed) (human, UniProt Q9UKV8 1-859)
T1 construct: Expressed in High Five insect cells and purified on nickel resin; also called His-AGO2; HisAGO2
Experiment: PepSpot peptide array incubated with recombinant His-tagged AGO2 (2 µg), detected with anti-His-HRP
Protocol: The association rate constant (Kₐ), dissociation rate constant (Kd), and equilibrium dissociation constant (KD) were calculated and presented in the chart (bottom).

T1 sequence (Q9UKV8 other isoform, or with tags, fused parts or gaps limits assumed): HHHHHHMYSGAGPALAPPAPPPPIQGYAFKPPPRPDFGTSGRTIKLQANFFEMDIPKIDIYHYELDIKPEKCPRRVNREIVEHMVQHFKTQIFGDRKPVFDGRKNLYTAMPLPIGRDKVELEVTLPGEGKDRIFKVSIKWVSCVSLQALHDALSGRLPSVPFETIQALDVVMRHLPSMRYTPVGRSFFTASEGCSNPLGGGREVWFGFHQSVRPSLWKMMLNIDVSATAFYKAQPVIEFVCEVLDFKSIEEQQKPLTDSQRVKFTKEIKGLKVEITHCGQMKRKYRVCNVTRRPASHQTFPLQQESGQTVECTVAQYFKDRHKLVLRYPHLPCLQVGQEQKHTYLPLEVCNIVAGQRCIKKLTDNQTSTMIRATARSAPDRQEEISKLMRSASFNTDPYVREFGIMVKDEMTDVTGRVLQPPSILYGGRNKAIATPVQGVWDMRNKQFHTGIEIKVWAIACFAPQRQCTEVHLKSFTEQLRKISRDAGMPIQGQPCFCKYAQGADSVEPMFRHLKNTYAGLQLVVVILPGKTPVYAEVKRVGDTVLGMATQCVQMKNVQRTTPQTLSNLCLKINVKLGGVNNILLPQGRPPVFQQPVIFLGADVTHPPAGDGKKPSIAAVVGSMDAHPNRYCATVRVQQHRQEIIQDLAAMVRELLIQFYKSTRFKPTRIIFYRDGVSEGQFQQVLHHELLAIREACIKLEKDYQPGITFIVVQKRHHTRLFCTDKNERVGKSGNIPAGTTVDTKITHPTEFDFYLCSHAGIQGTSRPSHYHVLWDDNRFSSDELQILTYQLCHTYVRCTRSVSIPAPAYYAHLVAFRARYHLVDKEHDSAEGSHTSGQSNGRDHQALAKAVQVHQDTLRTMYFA

| Binder | binding result |
| --- | --- |
| AYGPMAAAAAAAAVV (15-mer of the MSI1 C-terminus spotted on the PepSpot membrane; also called Index 15) [PepSpot array peptide 15] | no binding |
| AAAAAAVVRGTGSHP (15-mer of the MSI1 C-terminus spotted on the PepSpot membrane; also called Index 16) [PepSpot array peptide 16] | no binding |
| TSPGPMAELYGAANQ (15-mer of the MSI1 C-terminus spotted on the PepSpot membrane; also called Index 21) [PepSpot array peptide 21] | no binding |
| ELYGAANQDSGVSSY (15-mer of the MSI1 C-terminus spotted on the PepSpot membrane; also called Index 22) [PepSpot array peptide 22] | no binding |

Continued, values first:

| binding result | Binder |
| --- | --- |
| no binding | QDSGVSSYISAASPA (15-mer of the MSI1 C-terminus spotted on the PepSpot membrane; also called Index 23) [PepSpot array peptide 23] |
| no binding | VERTPLPSAPVLPEL (15-mer of the MSI1 C-terminus spotted on the PepSpot membrane; also called Index 12) [PepSpot array peptide 12] |
| no binding | SAPVLPELTAIPLTA (15-mer of the MSI1 C-terminus spotted on the PepSpot membrane; also called Index 13) [PepSpot array peptide 13] |
| no binding | LTAIPLTAYGPMAAA (15-mer of the MSI1 C-terminus spotted on the PepSpot membrane; also called Index 14) [PepSpot array peptide 14] |
